From publication PMC9236144 (Molecular Biology of the Cell, 2022)

Target: Bni1FH1C (Bni1 residues 1227-1953) (S. cerevisiae, UniProt P41832 1227-1953)
Assay: fluorescence polarisation

Chain of Bni1FH1C (Bni1 residues 1227-1953) (P41832 1227-1953): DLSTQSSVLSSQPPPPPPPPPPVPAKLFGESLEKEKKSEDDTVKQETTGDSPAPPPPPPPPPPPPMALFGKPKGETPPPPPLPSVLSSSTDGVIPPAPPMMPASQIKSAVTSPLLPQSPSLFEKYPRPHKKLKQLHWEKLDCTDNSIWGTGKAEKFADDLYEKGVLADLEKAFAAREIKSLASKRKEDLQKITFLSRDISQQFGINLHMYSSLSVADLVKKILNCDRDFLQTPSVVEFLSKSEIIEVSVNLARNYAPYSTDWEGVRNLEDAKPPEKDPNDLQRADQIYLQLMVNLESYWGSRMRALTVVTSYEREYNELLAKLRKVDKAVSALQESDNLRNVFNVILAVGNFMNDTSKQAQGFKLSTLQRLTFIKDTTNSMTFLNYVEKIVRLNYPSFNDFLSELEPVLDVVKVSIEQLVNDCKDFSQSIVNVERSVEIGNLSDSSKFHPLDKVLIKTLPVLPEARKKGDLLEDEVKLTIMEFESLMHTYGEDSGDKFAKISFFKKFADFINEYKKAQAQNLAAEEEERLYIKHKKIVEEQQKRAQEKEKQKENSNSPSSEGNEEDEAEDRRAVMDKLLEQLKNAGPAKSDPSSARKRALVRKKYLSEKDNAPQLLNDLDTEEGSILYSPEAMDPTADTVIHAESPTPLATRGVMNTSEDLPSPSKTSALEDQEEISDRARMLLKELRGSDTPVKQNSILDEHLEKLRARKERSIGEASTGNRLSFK

B1: Bud6C (Bud6 residues 550-789) (domain or fragment, S. cerevisiae, UniProt P41697 550-788, looked up)
chain: AKNSSNRMYMEKSQTELGDLSDTLLSKVDDLQDVIEIMRKDVAERRSQPAKKKLETVSKDLENAQADVLKLQEFIDTEKPHWKKTWEAELDKVCEEQQFLTLQEELILDLKEDLGKALETFDLIKLCCEEQEKNPSRSKSNPILPIMRPGTFNQVREQVMVAVQSLNPDHDSRVEAIDKAEKMWEMERKLKASNEFDDELENFVGNSNLKKSGGFEEVERIRKQKDEANLRAYFGPGFT
binding result: binds
